From the Human Domainome abundance scans (Beltran et al. 2025)

B1: GA-binding protein alpha chain, residues 172 to 250; numbered along this chain, Q06546 (parent)
chain: GYRKEQERLGIPYDPIQWSTDQVLHWVVWVMKEFSMTDIDLTTLNISGRELCSLNQEDFFQRVPRGEILWSHLELLRKY
B2: Ankyrin repeat and SOCS box protein 14, residues 532 to 572; numbered along this chain, A6NK59 (parent)
chain: RSLKHLCRLKIRKCMGRLHLRCPVFMSFLPLPNRLKAYVLY

Variants of: B1
Assay: abundance fitness (aPCA) (normalised: wild type 0, dead -1); higher = more abundant; growth selection in yeast, the domain comes from the species named
Conditions: Homo sapiens

Abundance fitness of substitutions, site by site:
R77: F -0.859, N -0.119, E -0.36, G -0.515, I -0.23, Q -0.299, M -0.348, K 0.016, L -0.165, V -0.343, A -0.547, S -0.311, T -0.246, H -0.07, W -0.873, C -0.255, D -0.382
L75: M -0.042, R -0.012, Y 0.01, S 0.046, V -0.193, W -0.104, T 0.024, H 0.031, I 0.107, Q -0.08, K -0.122
L76: K -0.876, T -0.29, R -0.677, I -0.236, W -0.621, Q -0.416, F -0.354, H -0.317, P -0.727, V -0.182, M -0.093, C -0.119, A -0.534, E -0.521, G -0.95, S -0.676
K78: L -0.135, E -0.05, A 0, I -0.009, F -0.086, M -0.071, Q -0.059, P -0.195, H -0.015, V -0.078, S -0.045, N 0.096, D 0.023, W -0.23, R 0.003, G 0.033, Y -0.208
Y79: D 0.06, P 0.009, H 0.002, G 0.031, M -0.299, S 0.038, K 0.146, Q 0.006, V -0.096, A -0.021, N 0.107, W -0.09, R -0.054, C -0.061, L -0.032, F 0.062, I -0.09, T -0.148, E 0.01

Variants of: B2
Assay: as above
Conditions: Homo sapiens

Abundance fitness: each site, then its substitutions
L9: H -0.089, C 0.119, K -0.234, A 0.003, Q 0.156, S 0.012, I 0.08, R -0.205, P -0.866, M 0.076, D 0.13, T 0.118, V -0.22, W -0.235, E 0.308, G -0.084
R17: P -0.06, H 0.104, Q 0.13, T -0.038, I -0.203, L 0.17, C 0.153, K 0.046, V 0.213, M 0.079, S 0.227, F 0.551, G 0.293, D -0.07, N -0.326, Y 0.506, E 0.103, A 0.371, W 0.722
R8: P 0.076, Q -0.048, S -0.132, K 0.118, Y 0.329, V 0.057, A 0.104, E -0.092, C 0.006, W 0.4, L 0.07, G -0.004, T 0.005
M15: C -0.319, E -0.738, P -0.671, R -0.6, Y -0.701, V -0.126, G -0.367, W 0.132, T -0.383, A -0.204, D -1, Q -0.576, S -0.612, L 0.202, H -0.794, F -0.16
C14: H -0.373, R -0.264, W 0.462, E -0.024, G -0.076, M 0.308, V 0.376, P -0.3, A 0.273, L 0.431, K -0.165, D 0.014, S -0.155
L6: C 0.204, T -0.041, H 0.054, E 0.166, Y 0.083, A 0.122, Q 0.261, D 0.192, P -0.493, K 0.027, V -0.183, R 0.154, S 0.155, W 0.394, G -0.297
R12: G -0.262, T -0.224, V -0.071, M 0.083, P -0.235, S -0.178, D -0.03, C -0.249, I 0.099, K 0.129, Q -0.168, W -0.201, L -0.063, H -0.662, A -0.261
L3: C -0.517, G -0.686, A -0.939, P -0.949, M -0.163, E -0.142, N -0.529, K -0.575, Q -0.655, T -0.668, V -0.547, H -0.878, D -0.331, R -0.759, W 0.011
L18: A -0.544, N -1.07, I 0.248, F 0.006, C -0.284, K -0.774, E -0.748, G -0.874, M -0.071
R1: N 0.093, T -0.372, M 0.386, A -0.414, C -0.113, K -0.107, G -0.042, E -0.033, V -0.1, S -0.39, W 0.045, F 0.243
G16: D 0.084, E 0.355, Q 0.356, T 0.12, P -0.105, L 0.102, R 0.121, N 0.231, W -0.058, H 0.024, C -0.269, F -0.152, K 0.092
K10: A 0.352, E -0.208, D -0.319, R -0.393, G -0.066, Y 0.168, H -0.559, Q -0.107, T 0.039, C -0.193, L 0.445, M 0.439, V 0.406
I11: G -0.68, V -0.17, Q -0.992, A -0.613, W 0.023, E -0.953, L -0.09, C -1.05, T -0.722, K -0.858, R -0.956, P -0.675
C7: W 0.099, M 0.24, F 0.041, I 0.229, E -0.37, R -0.871, S -0.357, P -0.577, V 0.304, A 0.063, H -0.631, T -0.217, N -0.414, Q -0.529, K -0.596, G -0.291
K13: Q 0.086, G 0.045, H -0.081, L -0.241, C -0.192, T -0.161, S -0.031, W -0.166, M -0.09, Y -0.179, A 0.009, I -0.091, R 0.048, V -0.236, E 0.201, P -0.434
H5: E -0.018, M 0.057, S 0.069, A -0.137, V -0.94, R -0.285, C -0.043, N -0.105, Q -0.296, L -0.184, P -0.6, G -0.37, D -0.293
K4: E -0.596, M -0.002, D -0.808, P -0.233, R -0.155, N -0.344, S -0.135, T 0.031, G -0.157, V -0.174, Q -0.425, W 0.051, L 0.157, Y 0.34, A 0.041
S2: L 0.136, D 0.299, V -0.339, K -0.053, R -0.153, P -0.521, W -0.097, I 0.335, A -0.37, T -0.196, C -0.572, E -0.057, M 0.48
